We go through two molecules from patent US9364556B2, “Drug conjugate comprising drug linked to human c-Met antibody, and use therefor” (Korea Research Institute of Bioscience and Biotechnology, priority 2011, dated 2016).

This assay deals with T1, C-Met (Homo sapiens, UniProt P08581).
T1 construct: A549 cells, known to readily express the c-Met receptor; endogenous in cells; host or cells: A549 (endogenous); Cos-7 cells overexpressing c-Met
Description: FACS analysis of specific binding to c-Met. As to conditions: A549 cells and Cos-7 cells that overexpressed c-Met, antibody 1:100, 4° C., 1 hour, FIG. 11. How it is done: Whether the human modified B7 antibody according to the present invention easily binds specifically to c-Met was examined by FACS analysis. Each of A549 cells, known to readily express the c-Met receptor, and Cos-7 cells that overexpressed c-Met, was prepared, washed twice with PBS, detached by treatment with trypsin, washed again with PBS, and then suspended in PBS (PBA buffer) containing 1% BSA protein. Then, the cells were treated with the purified modified B7 antibody of Example 2 at 1:100 at 4° C. for 1 hour, after which the cells were washed with PBA buffer and precipitated by centrifugation at 8000 rpm for 1 minute. The washing and precipitation process was repeated three times. Then, the modified B7 antibody was treated for 20 minutes with a 1:100 dilution of secondary antibody (Invitrogen, Alexa Fluor 488 goat anti-human IgG, #A11013) that detects human antibody. The cells were washed in the same manner as described above and analyzed by FACS analyzer (BD Cantoll Flow Cytometer), and the results of the analysis are shown in FIG. 11.
(In general: A flow cytometer gives signals particle by particle.)

T1 sequence (P08581 25-1390): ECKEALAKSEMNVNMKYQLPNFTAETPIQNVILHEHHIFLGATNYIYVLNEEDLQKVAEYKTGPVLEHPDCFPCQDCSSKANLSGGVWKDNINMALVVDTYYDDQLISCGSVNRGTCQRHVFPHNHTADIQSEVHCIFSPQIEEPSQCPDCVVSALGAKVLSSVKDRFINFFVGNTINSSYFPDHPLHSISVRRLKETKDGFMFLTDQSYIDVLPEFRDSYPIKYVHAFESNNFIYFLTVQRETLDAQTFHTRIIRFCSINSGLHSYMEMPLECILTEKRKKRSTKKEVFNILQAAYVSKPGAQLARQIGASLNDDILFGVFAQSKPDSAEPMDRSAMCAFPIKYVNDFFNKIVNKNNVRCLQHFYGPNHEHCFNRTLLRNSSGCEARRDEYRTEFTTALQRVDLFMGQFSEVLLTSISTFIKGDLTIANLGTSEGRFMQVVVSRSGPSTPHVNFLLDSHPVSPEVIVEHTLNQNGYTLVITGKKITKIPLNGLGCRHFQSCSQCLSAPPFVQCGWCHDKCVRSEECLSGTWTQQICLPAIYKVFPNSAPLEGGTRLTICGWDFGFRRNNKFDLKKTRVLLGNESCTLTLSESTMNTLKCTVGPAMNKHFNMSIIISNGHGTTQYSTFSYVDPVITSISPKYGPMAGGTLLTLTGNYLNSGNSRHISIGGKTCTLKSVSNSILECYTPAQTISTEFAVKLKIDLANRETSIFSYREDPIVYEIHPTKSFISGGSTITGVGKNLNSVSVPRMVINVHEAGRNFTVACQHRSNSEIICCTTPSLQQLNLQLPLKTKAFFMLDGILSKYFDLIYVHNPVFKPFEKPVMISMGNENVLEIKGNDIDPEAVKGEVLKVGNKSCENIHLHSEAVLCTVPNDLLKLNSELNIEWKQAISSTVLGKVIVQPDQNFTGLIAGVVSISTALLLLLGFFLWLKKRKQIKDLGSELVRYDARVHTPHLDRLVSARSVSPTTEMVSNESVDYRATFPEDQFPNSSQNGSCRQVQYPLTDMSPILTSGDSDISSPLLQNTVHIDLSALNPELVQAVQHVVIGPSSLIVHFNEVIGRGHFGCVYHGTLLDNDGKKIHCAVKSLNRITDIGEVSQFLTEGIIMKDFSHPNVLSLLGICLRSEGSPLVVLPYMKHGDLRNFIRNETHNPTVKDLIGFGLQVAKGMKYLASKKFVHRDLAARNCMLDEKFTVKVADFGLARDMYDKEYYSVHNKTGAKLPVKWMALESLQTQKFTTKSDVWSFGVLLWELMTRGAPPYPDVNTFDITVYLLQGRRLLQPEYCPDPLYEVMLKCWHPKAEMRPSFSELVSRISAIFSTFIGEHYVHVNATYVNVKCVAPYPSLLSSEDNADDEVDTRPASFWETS

B1: modified B7 antibody: B7 antibody with a cysteine residue added to the heavy-chain variable region (SEQ ID NO: 8); light-chain SEQ ID NO: 11 (antibody, V domains shown)
VH: MGWSYIILFLVATAADVHSQVQLQEWGAGLLKPSETLSLTCAVSGGSLSGHYWSWVRLPPGKGLEWIGEISHSGNTNYNSSLKSRASISIDTSKNEYSLNLKSVTAVDTAVYYCARFYGDYPSSYGMDVWGQGTTVTVSSC
VL: MGWSYIILFLVATAADVHSQSALTQPASVSGSPGQSITISCTGTISDIGTYDFVSWYQHKPGKAPKLLIFDVNNRPSGVSSRFSGSKSDNTASLSISGFQAEDEADYYCSSYTDNRGLVLFGGGTKLTVLRS
modifications: a heavy chain variable region with extra cysteine; a light chain variable region
Take B1: the “specific binding to c-Met by FACS” value was “did bind specifically to c-Met”.

B2: B7 antibody: c-Met-specific human whole IgG from B7 phage variable region; heavy-chain variable region SEQ ID NO: 7, light-chain SEQ ID NO: 11 (antibody, V domains shown)
VH: MGWSYIILFLVATAADVHSQVQLQEWGAGLLKPSETLSLTCAVSGGSLSGHYWSWVRLPPGKGLEWIGEISHSGNTNYNSSLKSRASISIDTSKNEYSLNLKSVTAVDTAVYYCARFYGDYPSSYGMDVWGQGTTVTVSS
VL: B1 VL
modifications: a heavy chain variable region; a light chain variable region
In the case of B2, the “specific binding to c-Met by FACS” value is given as “bind specifically to c-Met”. Moreover, where the note is “listed as original B7 antibody”, the “specific binding to c-Met by FACS” value is recorded as “specifically recognizes c-Met”.
